{
  "source": "patent US20160355576A1",
  "key": {"[1]": {"target": "misfolded-aggregated recombinant V30M-TTR (human), P02766", "assay": "direct ELISA, antigen coated at 10 µg/ml", "conditions": "remark: other sources report otherwise"}, "[2]": {"target": "misfolded-aggregated human wild-type TTR (human), P02766", "assay": "direct ELISA, antigen coated at 10 µg/ml", "conditions": "remark: other sources report otherwise"}, "[3]": {"target": "native TTR-L55P (human), P02766", "assay": "SPR, antibody captured by anti-human IgG-Fc, TTR 3.2-316 nM, Langmuir 1:1 fit", "conditions": "remark: other sources report otherwise"}, "[4]": {"target": "misfolded-aggregated human wild-type TTR (human), P02766", "assay": "SPR, antibody captured by anti-human IgG-Fc, TTR 3.2-316 nM, Langmuir 1:1 fit", "conditions": "remark: other sources report otherwise"}, "[5]": {"target": "native TTR-V30M (human), P02766", "assay": "SPR, antibody captured by anti-human IgG-Fc, TTR 3.2-316 nM, Langmuir 1:1 fit", "conditions": "remark: other sources report otherwise"}, "[6]": {"target": "human wild-type TTR protein in native conformation (human) (UniProt P02766)", "assay": "SPR, antibody captured by anti-human IgG-Fc, TTR 3.2-316 nM, Langmuir 1:1 fit"}},
  "data": [
    {"binder": "NI-301.35G11 (antibody, V domains shown) VH: EVQLVESGGGLVQPGGSLRLSCVASGFTFSSYAMSWVRQVPGKGLEWVSSISGSGDTTKYTDSVKGRFTISRDNSKNTVFLQMSSLRAEDTALYYCVKDGSGRIDPFALWGQGTMVTVSS VL: EIVMTQSPLSLPVTLGQPASISCRSSRSLVYSDGNIYLNWFQQRPGQSPRRLIYKVSNRDSGVPDRFSGSGSDTDFTLRISRVEAEDVGVYYCMQGTHWPRTFGQGTKVEIK", "values": [
      {"measurement": "EC50", "setting": "[1]", "value": 5, "unit": "nM"},
      {"measurement": "EC50", "setting": "[2]", "value": 3.9, "unit": "nM"},
      {"measurement": "Kd", "setting": "[3]", "value": "> 100", "unit": "nM"},
      {"measurement": "Kd", "setting": "[4]", "value": 12, "unit": "nM"},
      {"measurement": "koff", "setting": "[4]", "value": 0.00027, "unit": "s⁻¹"},
      {"measurement": "kon", "setting": "[4]", "value": 23000, "unit": "M⁻¹ s⁻¹"},
      {"measurement": "Kd", "setting": "[5]", "value": 33, "unit": "nM"},
      {"measurement": "koff", "setting": "[5]", "value": 0.00024, "unit": "s⁻¹"},
      {"measurement": "kon", "setting": "[5]", "value": 7400, "unit": "M⁻¹ s⁻¹"},
      {"measurement": "Kd", "setting": "[6]", "value": "> 316", "unit": "nM"}
    ]}
  ]
}
